# Results as given in PMC9478397.
# B1: Sm-BrbF (SMc02977) (Sinorhizobium meliloti 1021) (protein)
# chain: MSLPKPRWTDNSAALEPVERRDWIAVLPLGAHEQHGPHLPFETDRLIAAGIVERVIAALPQALPVTFLPVEPVGYSIEHMDVSGTRTLAYDEAIERWLGIAESLAGLGVRKFVMLNAHGGNSPLMTIVATEARIRFRMLAVATSWTRFGQPDGWISAKDKAVDIHGGDIETSVMLALHPDKVDMAKARAFPSRQGEFALSFKHLRAYGPHAFGWKMSDLNPDGVAGNAAAATAERGEALLAHAAKGIIELLEDVNAFDAGELD
# notes: full ORF in pET-30 Ek/LIC, E. coli BL21; His tag cleaved with enterokinase, untagged
# Substrate: Nc1nc(N[C@@H]2O[C@H](COP(=O)(O)O)[C@@H](O)[C@H]2O)c(NC=O)c(=O)[nH]1
# Test: formamidase assay, fluorescence HPLC of derivatized product (DARoPP / formate)
# Type: biochemical, Sinorhizobium meliloti
# Details: 50 mM TES pH 7.2, 10% glycerol, 0.25 mM DTT, 1 mM MgCl2, 30 °C, 8 min
protein,measurement,value
B1,Km,152.44 ± 33.59 µM
